# From paper PMC10058294, “Interaction of SARS-CoV-2 Nucleocapsid Protein and Human RNA Helicases DDX1 and DDX3X Modulates Their Activities on Double-Stranded RNA” (International Journal of Molecular Sciences, 2023)
# Target: T1, recombinant full-length SARS-CoV-2 nucleocapsid protein (Np) (SARS-CoV-2, UniProt P0DTC9 1-419)
# T1 construct: also called N protein; recombinant Np
# Experiment: pull-down
# Settings: both partners purified
binder,measurement,value
"HALO-tagged recombinant full-length human DDX3X (enzyme, UniProt O00571 1-662, looked up, TEV site between tag and DDX3X; The helicase and EMSA assays used another construct (pET30a(+)-DDX3X, purified from ShuffleT7 E. coli); also called HALO-DDX3X; Halo-tagged DDX3X; not shown: HaloTag, N-terminal, kept) MSHVAVENALGLDQQFAGLDLNSSDNQSGGSTASKGRYIPPHLRNREATKGFYDKDSSGWSSSKDKDAYSSFGSRSDSRGKSSFFSDRGSGSRGRFDDRGRSDYDGIGSRGDRSGFGKFERGGNSRWCDKSDEDDWSKPLPPSERLEQELFSGGNTGINFEKYDDIPVEATGNNCPPHIESFSDVEMGEIIMGNIELTRYTRPTPVQKHAIPIIKEKRDLMACAQTGSGKTAAFLLPILSQIYSDGPGEALRAMKENGRYGRRKQYPISLVLAPTRELAVQIYEEARKFSYRSRVRPCVVYGGADIGQQIRDLERGCHLLVATPGRLVDMMERGKIGLDFCKYLVLDEADRMLDMGFEPQIRRIVEQDTMPPKGVRHTMMFSATFPKEIQMLARDFLDEYIFLAVGRVGSTSENITQKVVWVEESDKRSFLLDLLNATGKDSLTLVFVETKKGADSLEDFLYHEGYACTSIHGDRSQRDREEALHQFRSGKSPILVATAVAARGLDISNVKHVINFDLPSDIEEYVHRIGRTGRVGNLGLATSFFNERNINITKDLLDLLVEAKQEVPSWLENMAYEHHYKGSSRGRSKSSRFSGGFGARDYRQSSGASSSSFSSSRASSSRSGGGGHGSSRGFGGGGYGGFYNSDGYGGNYNSQGVDWWGN",binding result,binds
